Data set [1] has as its target T1, VapB26 antitoxin (ITC/EMSA) (Mycobacterium tuberculosis, UniProt O53778 1-71). As to the kind of experiment: ITC. Background: Isothermal titration calorimetry measures the heat released or taken up as one component is titrated into another.
For data set [2], the target named is His6-VapB26 antitoxin (NMR) (Mycobacterium tuberculosis, UniProt O53778 1-71). As to the kind of experiment: NMR.
In data set [3] the target is T1, VapB26 antitoxin (ITC/EMSA). Briefly: EMSA. A general note: In EMSA bound probe runs differently from free probe, usually more slowly.
The target is the same in data set [4]. Briefly: ITC. This is another data set of the same source.

Drawing on paper PMC5737657, this text covers binding result and Kd for 4 molecules.

By Kd is commonly meant the constant that tells how readily two partners part at equilibrium. Lower therefore signals higher affinity.

T1 sequence (O53778 whole entry): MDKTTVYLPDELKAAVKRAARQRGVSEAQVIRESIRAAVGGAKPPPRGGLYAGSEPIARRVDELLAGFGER
His6-VapB26 antitoxin (NMR), sequence (O53778 whole entry): as above

B1: control DNA 'X' (dsDNA)
DNA 1: GATTTTTTTTGATTTTTTT
DNA 2: AAAAAAATCAAAAAAAATC
As for B1, the binding result in data set [1] and in data set [2] was “no binding” in each case.

B2: palindromic DNA 'b' (dsDNA)
DNA 1: TAATAGAATAATAAGTATCACTCCTTTA
DNA 2: TAAAGGAGTGATACTTATTATTCTATTA
In the case of B2, in data set [3], the binding result was “no binding”.

B3: vapBC26 promoter DNA (19 bp) (dsDNA)
DNA 1: TTCGCGGCTACGCCGACAA
DNA 2: TTGTCGGCGTAGCCGCGAA
In data set [4], B3 returned a Kd of 4.69 ± 0.81 µM.

B4: palindromic DNA 'a' (dsDNA)
DNA 1: TATTTTAATAACTTAAAAGT
DNA 2: ACTTTTAAGTTATTAAAATA
Regarding B4, in data set [3], the binding result is recorded as “no binding”.
